Results: patent publication US20020086983A1

Columns and labels:
[1] = target: B42-Mch5b-FDH (residues 3-177) (UniProt Q14790); assay: yeast two-hybrid liquid b-gal assay; four independent experiments
[2] = target: B42-Mch5b-FDH-A (residues 3-80) (UniProt Q14790); assay: as above
[3] = target: B42-Mch5b-FDH-B (residues 102-177) (UniProt Q14790); assay: as above
[4] = target: B42; assay: yeast two-hybrid liquid b-gal assay; activation hybrid alone (background control); four independent experiments

B42-Mch5b-FDH (residues 3-177), sequence (Q14790 3-177, form in doubt): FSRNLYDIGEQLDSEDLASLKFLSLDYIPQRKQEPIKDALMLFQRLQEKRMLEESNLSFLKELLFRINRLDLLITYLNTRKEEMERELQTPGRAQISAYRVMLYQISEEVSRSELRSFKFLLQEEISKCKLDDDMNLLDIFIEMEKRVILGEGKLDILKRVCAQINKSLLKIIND
B42-Mch5b-FDH-A (residues 3-80), sequence (Q14790 3-80, form in doubt): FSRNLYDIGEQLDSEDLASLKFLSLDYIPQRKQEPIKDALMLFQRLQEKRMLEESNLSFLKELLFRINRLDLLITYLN
B42-Mch5b-FDH-B (residues 102-177), sequence (Q14790 102-177, form in doubt): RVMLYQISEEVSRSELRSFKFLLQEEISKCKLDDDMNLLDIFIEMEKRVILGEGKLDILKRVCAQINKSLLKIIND

LexA-FLAME-1-FDH (residues 1-160) (from UniProt O15519 1-160)
Liquid assay b-gal activity [1]: 300 Miller units
Liquid assay b-gal activity [2]: 52.7 Miller units
Liquid assay b-gal activity [3]: 728 Miller units
Liquid assay b-gal activity [4]: 23.2 Miller units
